From publication PMC10322149

T1: Homer3, Q9NSC5
T1 chain: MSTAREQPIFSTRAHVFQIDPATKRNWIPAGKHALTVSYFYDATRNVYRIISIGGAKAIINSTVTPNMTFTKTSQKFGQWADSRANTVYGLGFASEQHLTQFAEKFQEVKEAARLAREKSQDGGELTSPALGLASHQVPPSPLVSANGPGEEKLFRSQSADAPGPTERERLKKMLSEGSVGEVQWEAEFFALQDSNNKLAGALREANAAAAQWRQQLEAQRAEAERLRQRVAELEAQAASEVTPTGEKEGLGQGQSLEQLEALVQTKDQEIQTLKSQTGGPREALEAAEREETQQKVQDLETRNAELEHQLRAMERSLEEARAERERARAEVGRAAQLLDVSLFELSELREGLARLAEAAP

T2: Pi-Homer3 (Homer3 phosphorylated by CaMKIIα), Q9NSC5
T2 chain: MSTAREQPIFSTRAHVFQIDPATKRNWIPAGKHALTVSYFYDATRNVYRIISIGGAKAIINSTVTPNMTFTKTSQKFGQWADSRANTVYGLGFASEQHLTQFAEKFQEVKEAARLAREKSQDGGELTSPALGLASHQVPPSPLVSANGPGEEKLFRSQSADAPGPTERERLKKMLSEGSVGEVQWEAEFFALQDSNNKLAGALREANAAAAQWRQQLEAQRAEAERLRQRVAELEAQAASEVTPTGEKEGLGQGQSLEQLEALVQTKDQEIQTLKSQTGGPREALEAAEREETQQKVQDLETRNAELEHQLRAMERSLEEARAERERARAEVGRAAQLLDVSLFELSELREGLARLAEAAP


Legend:
[1] = target: T1, Homer3, Q9NSC5; experiment: SEC-MALS; FPLC coupled with static light scattering; Superose 12 10/300 GL; 50 mM Tris pH 8.0, 100 mM NaCl, 1 mM EDTA, 1 mM DTT; Homer3 and Pi-Homer3 at 50 μM; conditions: remark: other sources report otherwise
[2] = target: T2, Pi-Homer3 (Homer3 phosphorylated by …); experiment: as above; conditions: remark: other sources report otherwise

| stoichiometry N [1] | stoichiometry N [2] | Binder |
| --- | --- | --- |
| 4 |  | Homer3, Q9NSC5 1-361 (natural protein) MSTAREQPIFSTRAHVFQIDPATKRNWIPAGKHALTVSYFYDATRNVYRIISIGGAKAIINSTVTPNMTFTKTSQKFGQWADSRANTVYGLGFASEQHLTQFAEKFQEVKEAARLAREKSQDGGELTSPALGLASHQVPPSPLVSANGPGEEKLFRSQSADAPGPTERERLKKMLSEGSVGEVQWEAEFFALQDSNNKLAGALREANAAAAQWRQQLEAQRAEAERLRQRVAELEAQAASEVTPTGEKEGLGQGQSLEQLEALVQTKDQEIQTLKSQTGGPREALEAAEREETQQKVQDLETRNAELEHQLRAMERSLEEARAERERARAEVGRAAQLLDVSLFELSELREGLARLAEAAP |
|  | 4 | Pi-Homer3 (Homer3 phosphorylated by CaMKIIα), Q9NSC5 1-361 (natural protein, here or on the partner: phosphorylated by CaMKIIα at Ser residues in the central linker region (positions not given); phosphorylated by CaMKIIα at Ser residues in the central linker region (positions not given)) MSTAREQPIFSTRAHVFQIDPATKRNWIPAGKHALTVSYFYDATRNVYRIISIGGAKAIINSTVTPNMTFTKTSQKFGQWADSRANTVYGLGFASEQHLTQFAEKFQEVKEAARLAREKSQDGGELTSPALGLASHQVPPSPLVSANGPGEEKLFRSQSADAPGPTERERLKKMLSEGSVGEVQWEAEFFALQDSNNKLAGALREANAAAAQWRQQLEAQRAEAERLRQRVAELEAQAASEVTPTGEKEGLGQGQSLEQLEALVQTKDQEIQTLKSQTGGPREALEAAEREETQQKVQDLETRNAELEHQLRAMERSLEEARAERERARAEVGRAAQLLDVSLFELSELREGLARLAEAAP |
